B1: Dolichyl-diphosphooligosaccharide--protein glycosyltransferase subunit WBP1 (Saccharomyces cerevisiae), P33767 (parent)
chain: MRTDWNFFFCILLQAIFVVGTQTSRTLVLYDQSTEPLEEYSVYLKDLEQRNYKLEYLDINSTSTTVDLYDKEQRLFDNIIVFPTKGGKNLARQIPVKQLIKFFENEGNILCMSSPGAVPNTIRLFLNELGIYPSPKGHVIRDYFSPSSEELVVSSNHLLNKYVYNARKSEDFVFGESSAALLENREQIVPILNAPRTSFTESKGKCNSWTSGSQGFLVVGFQNLNNARLVWIGSSDFLKNKNQDSNQEFAKELLKWTFNEKSVIKSVHAVHSHADGTSYDEEPYKIKDKVIYSVGFSEWNGEEWLPHIADDIQFELRQVDPYYRLTLSPSGNDSETQYYTTGEFILPDRHGVFTFLTDYRKIGLSFTTDKDVKAIRHLANDEYPRSWEISNSWVYISAICGVIVAWIFFVVSFVTTSSVGKKLETFKKTN
partner: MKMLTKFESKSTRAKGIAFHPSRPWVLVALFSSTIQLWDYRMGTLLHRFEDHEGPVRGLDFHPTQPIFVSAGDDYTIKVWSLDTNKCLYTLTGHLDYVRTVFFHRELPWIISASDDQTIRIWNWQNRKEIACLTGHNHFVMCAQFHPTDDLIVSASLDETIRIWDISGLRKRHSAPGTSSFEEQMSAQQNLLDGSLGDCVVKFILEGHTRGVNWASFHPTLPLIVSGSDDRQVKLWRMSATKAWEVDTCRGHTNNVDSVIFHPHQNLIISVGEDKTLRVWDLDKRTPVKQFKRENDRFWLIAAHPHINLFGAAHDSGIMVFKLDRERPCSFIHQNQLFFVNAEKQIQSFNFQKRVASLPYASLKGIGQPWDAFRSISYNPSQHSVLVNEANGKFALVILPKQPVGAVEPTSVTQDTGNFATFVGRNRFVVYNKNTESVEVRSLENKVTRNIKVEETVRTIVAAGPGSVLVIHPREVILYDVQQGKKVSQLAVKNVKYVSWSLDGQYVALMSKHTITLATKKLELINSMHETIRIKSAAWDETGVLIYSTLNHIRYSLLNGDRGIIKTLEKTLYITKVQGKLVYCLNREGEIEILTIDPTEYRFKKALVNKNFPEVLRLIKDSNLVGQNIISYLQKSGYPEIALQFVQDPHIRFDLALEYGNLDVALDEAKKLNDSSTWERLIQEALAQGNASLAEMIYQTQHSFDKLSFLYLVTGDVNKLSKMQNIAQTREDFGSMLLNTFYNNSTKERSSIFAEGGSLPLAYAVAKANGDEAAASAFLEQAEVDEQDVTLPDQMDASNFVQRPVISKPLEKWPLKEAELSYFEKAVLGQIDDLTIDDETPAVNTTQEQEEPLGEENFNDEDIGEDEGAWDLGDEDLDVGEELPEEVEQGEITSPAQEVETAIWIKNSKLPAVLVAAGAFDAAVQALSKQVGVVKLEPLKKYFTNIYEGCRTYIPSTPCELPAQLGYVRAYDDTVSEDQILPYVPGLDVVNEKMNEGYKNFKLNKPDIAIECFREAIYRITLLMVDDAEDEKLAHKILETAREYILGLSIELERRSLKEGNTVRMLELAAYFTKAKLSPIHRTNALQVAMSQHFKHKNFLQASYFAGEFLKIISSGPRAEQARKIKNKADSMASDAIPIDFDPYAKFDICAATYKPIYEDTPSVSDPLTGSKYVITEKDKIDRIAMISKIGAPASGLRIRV
B2: Protein EMP47 (Saccharomyces cerevisiae), P43555 (parent)
chain: MMMLITMKSTVLLSVFTVLATWAGLLEAHPLGDTSDASKLSSDYSLPDLINARKVPNNWQTGEQASLEEGRIVLTSKQNSKGSLWLKQGFDLKDSFTMEWTFRSVGYSGQTDGGISFWFVQDSNVPRDKQLYNGPVNYDGLQLLVDNNGPLGPTLRGQLNDGQKPVDKTKIYDQSFASCLMGYQDSSVPSTIRVTYDLEDDNLLKVQVDNKVCFQTRKVRFPSGSYRIGVTAQNGAVNNNAESFEIFKMQFFNGVIEDSLIPNVNAMGQPKLITKYIDQQTGKEKLIEKTAFDADKDKITNYELYKKLDRVEGKILANDINALETKLNDVIKVQQELLSFMTTITKQLSSKPPANNEKGTSTDDAIAEDKENFKDFLSINQKLEKVLVEQEKYREATKRHGQDGPQVDEIARKLMIWLLPLIFIMLVMAYYTFRIRQEIIKTKLL
partner: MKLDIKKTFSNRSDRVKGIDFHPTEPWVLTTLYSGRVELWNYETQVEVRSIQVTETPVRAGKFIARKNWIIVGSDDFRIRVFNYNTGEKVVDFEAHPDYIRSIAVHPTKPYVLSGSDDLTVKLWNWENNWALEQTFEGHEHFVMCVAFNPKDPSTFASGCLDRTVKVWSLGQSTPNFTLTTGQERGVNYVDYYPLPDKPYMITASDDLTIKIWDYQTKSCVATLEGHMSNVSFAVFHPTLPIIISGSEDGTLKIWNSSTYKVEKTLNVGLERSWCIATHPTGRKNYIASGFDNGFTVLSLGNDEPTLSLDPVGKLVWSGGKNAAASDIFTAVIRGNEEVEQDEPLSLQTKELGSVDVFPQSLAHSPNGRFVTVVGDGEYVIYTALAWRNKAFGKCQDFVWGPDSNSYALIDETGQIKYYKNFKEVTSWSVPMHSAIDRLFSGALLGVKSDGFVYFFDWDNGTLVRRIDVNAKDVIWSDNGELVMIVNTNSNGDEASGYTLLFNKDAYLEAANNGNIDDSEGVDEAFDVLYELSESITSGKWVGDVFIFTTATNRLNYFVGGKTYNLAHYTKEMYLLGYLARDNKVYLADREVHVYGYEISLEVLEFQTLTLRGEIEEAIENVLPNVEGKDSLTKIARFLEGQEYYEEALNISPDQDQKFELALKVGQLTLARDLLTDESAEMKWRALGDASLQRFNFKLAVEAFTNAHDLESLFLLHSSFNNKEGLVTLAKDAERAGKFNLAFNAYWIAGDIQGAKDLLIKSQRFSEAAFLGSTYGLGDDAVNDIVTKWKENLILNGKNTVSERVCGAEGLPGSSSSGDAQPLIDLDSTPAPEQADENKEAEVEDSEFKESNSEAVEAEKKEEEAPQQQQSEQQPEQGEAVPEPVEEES

Variants of: B1
Conditions: with copa_yeast COP1, P53622

| effect of a mutation on the interaction | Variant |
| --- | --- |
| decreasing interaction | MRTDWNFFFCILLQAIFVVGTQTSRTLVLYDQSTEPLEEYSVYLKDLEQRNYKLEYLDINSTSTTVDLYDKEQRLFDNIIVFPTKGGKNLARQIPVKQLIKFFENEGNILCMSSPGAVPNTIRLFLNELGIYPSPKGHVIRDYFSPSSEELVVSSNHLLNKYVYNARKSEDFVFGESSAALLENREQIVPILNAPRTSFTESKGKCNSWTSGSQGFLVVGFQNLNNARLVWIGSSDFLKNKNQDSNQEFAKELLKWTFNEKSVIKSVHAVHSHADGTSYDEEPYKIKDKVIYSVGFSEWNGEEWLPHIADDIQFELRQVDPYYRLTLSPSGNDSETQYYTTGEFILPDRHGVFTFLTDYRKIGLSFTTDKDVKAIRHLANDEYPRSWEISNSWVYISAICGVIVAWIFFVVSFVTTSSVGKKLETFAATN [K427A;K428A] |

Variants of: B2
Conditions: with copb2_yeast SEC27, P41811

| effect of a mutation on the interaction | Variant |
| --- | --- |
| decreasing interaction | MMMLITMKSTVLLSVFTVLATWAGLLEAHPLGDTSDASKLSSDYSLPDLINARKVPNNWQTGEQASLEEGRIVLTSKQNSKGSLWLKQGFDLKDSFTMEWTFRSVGYSGQTDGGISFWFVQDSNVPRDKQLYNGPVNYDGLQLLVDNNGPLGPTLRGQLNDGQKPVDKTKIYDQSFASCLMGYQDSSVPSTIRVTYDLEDDNLLKVQVDNKVCFQTRKVRFPSGSYRIGVTAQNGAVNNNAESFEIFKMQFFNGVIEDSLIPNVNAMGQPKLITKYIDQQTGKEKLIEKTAFDADKDKITNYELYKKLDRVEGKILANDINALETKLNDVIKVQQELLSFMTTITKQLSSKPPANNEKGTSTDDAIAEDKENFKDFLSINQKLEKVLVEQEKYREATKRHGQDGPQVDEIARKLMIWLLPLIFIMLVMAYYTFRIRQEIISTSLL [K441S;K443S] |
